Experiments:
Test in all cases: holdup assay
Design in all cases: key: below the threshold = too weak to quantify, mostly under pKd 3.1 to 4
DLG3_1, Q92796 = target: T1, DLG3_1, Q92796
T1 sequence (Q92796 125-227, limits assumed, looked up): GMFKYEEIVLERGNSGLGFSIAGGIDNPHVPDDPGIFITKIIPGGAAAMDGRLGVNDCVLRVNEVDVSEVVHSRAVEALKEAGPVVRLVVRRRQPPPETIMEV

TJP1_3, Q07157 = target: TJP1_3, Q07157
MPP2, Q14168 = target: T2, MPP2, Q14168
T2 sequence (Q14168 180-250, limits assumed, looked up): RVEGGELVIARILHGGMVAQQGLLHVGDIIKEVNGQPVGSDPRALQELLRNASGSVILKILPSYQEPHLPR

GIPC2, Q8TF65 = target: GIPC2, Q8TF65
Chain of GIPC2, Q8TF65 (Q8TF65 112-203): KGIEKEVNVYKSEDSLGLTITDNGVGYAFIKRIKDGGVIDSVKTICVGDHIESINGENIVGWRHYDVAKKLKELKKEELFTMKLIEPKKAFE

Inadl_8, Q8NI35 = target: Inadl_8, Q8NI35
Chain of Inadl_8, Q8NI35 (Q8NI35 1425-1530): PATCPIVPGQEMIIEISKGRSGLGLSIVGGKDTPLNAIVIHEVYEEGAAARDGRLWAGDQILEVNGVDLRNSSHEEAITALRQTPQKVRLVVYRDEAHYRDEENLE

PTPN13_1, Q12923 = target: T3, PTPN13_1, Q12923
T3 sequence (Q12923 1088-1188, limits assumed, looked up): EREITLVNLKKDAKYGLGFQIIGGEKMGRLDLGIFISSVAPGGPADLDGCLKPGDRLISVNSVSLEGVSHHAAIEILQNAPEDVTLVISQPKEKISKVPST

NHERF4_4, Q86UT5 = target: NHERF4_4, Q86UT5
Chain of NHERF4_4, Q86UT5 (Q86UT5 464-550): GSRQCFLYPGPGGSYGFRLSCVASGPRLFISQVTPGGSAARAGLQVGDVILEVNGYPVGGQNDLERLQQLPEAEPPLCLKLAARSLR

CASK, O14936 = target: CASK, O14936
Chain of CASK, O14936 (O14936 487-570): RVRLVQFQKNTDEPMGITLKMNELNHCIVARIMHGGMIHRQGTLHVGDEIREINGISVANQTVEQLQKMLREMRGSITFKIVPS

MAGI2_6, Q86UL8 = target: MAGI2_6, Q86UL8
Chain of MAGI2_6, Q86UL8 (Q86UL8 1141-1229): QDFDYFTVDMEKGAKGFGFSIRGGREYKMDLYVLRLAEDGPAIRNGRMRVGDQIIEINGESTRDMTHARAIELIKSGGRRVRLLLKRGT

NHERF3_3, Q5T2W1 = target: T4, NHERF3_3, Q5T2W1
T4 sequence (Q5T2W1 238-333, limits assumed, looked up): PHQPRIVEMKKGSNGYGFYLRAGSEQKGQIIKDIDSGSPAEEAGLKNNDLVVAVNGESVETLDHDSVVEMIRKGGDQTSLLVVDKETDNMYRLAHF

LNX1_2, Q8TBB1 = target: LNX1_2, Q8TBB1
Chain of LNX1_2, Q8TBB1 (Q8TBB1 371-470): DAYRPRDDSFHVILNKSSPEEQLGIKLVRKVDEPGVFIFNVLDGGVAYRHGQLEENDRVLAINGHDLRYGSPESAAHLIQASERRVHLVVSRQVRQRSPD

DLG3_2, Q92796 = target: T5, DLG3_2, Q92796
T5 sequence (Q92796 221-321, limits assumed, looked up): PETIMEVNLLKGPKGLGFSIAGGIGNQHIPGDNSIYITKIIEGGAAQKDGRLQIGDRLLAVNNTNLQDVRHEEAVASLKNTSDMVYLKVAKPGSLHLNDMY

SNTG1, Q9NSN8 = target: T6, SNTG1, Q9NSN8
T6 sequence (Q9NSN8 52-150, limits assumed, looked up): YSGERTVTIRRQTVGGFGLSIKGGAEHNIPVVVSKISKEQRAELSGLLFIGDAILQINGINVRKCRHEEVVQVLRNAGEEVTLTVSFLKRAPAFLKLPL

DLG4_2, P78352 = target: DLG4_2, P78352
Chain of DLG4_2, P78352 (P78352 155-259): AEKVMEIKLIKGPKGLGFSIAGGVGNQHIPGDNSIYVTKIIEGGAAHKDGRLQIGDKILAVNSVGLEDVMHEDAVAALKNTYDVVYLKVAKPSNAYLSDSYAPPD

LNX1_1, Q8TBB1 = target: LNX1_1, Q8TBB1
Chain of LNX1_1, Q8TBB1 (Q8TBB1 261-371): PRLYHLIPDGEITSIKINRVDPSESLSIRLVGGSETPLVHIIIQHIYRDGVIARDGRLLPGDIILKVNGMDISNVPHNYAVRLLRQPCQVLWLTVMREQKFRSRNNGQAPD

FRMPD2_3, Q68DX3 = target: FRMPD2_3, Q68DX3
Chain of FRMPD2_3, Q68DX3 (Q68DX3 1073-1166): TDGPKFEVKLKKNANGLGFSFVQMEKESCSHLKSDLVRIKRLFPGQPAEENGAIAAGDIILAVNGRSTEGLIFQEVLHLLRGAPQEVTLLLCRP

TX1BP3, O14907 = target: T7, TX1BP3, O14907
T7 sequence (O14907 10-122, limits assumed, looked up): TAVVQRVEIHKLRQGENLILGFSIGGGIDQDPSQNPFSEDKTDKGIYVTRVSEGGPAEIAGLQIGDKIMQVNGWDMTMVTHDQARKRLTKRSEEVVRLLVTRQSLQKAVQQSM

DLG3_3, Q92796 = target: T8, DLG3_3, Q92796
T8 sequence (Q92796 374-475, limits assumed, looked up): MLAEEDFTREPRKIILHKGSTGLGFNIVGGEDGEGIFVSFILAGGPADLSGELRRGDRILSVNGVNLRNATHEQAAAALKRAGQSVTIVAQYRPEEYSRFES

Inadl_3, Q8NI35 = target: Inadl_3, Q8NI35
Chain of Inadl_3, Q8NI35 (Q8NI35 359-469): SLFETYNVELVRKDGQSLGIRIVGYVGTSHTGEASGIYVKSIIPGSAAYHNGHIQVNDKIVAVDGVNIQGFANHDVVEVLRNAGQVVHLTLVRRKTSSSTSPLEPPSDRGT

Inadl_9, Q8NI35 = target: Inadl_9, Q8NI35
Chain of Inadl_9, Q8NI35 (Q8NI35 1530-1615): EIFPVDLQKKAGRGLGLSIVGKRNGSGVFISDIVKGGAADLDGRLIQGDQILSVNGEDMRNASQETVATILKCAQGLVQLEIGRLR

MAGI2_4, Q86UL8 = target: MAGI2_4, Q86UL8
Chain of MAGI2_4, Q86UL8 (Q86UL8 772-865): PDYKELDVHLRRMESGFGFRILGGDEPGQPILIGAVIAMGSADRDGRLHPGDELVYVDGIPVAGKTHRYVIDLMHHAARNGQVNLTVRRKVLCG

MAGI1_1, Q96QZ7 = target: MAGI1_1, Q96QZ7
Chain of MAGI1_1, Q96QZ7 (Q96QZ7 1-106): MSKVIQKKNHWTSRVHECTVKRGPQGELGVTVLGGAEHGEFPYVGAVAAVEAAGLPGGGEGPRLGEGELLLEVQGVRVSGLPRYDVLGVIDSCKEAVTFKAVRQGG

TJP3_3, O95049 = target: T9, TJP3_3, O95049
T9 sequence (O95049 375-456, limits assumed, looked up): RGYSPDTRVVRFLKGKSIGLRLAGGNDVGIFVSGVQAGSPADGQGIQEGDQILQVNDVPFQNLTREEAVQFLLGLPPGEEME

APBA1_1, Q02410 = target: T10, APBA1_1, Q02410
T10 sequence (Q02410 651-752, limits assumed, looked up): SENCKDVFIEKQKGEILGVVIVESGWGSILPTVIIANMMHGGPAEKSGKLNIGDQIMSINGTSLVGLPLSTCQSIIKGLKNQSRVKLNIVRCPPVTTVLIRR

GRIP1_2, Q9Y3R0 = target: T11, GRIP1_2, Q9Y3R0
T11 sequence (Q9Y3R0 145-248, limits assumed, looked up): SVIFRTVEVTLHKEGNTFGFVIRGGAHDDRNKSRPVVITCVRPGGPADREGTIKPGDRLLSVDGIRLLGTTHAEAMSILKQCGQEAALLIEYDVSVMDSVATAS

LIN7B, Q9HAP6 = target: T12, LIN7B, Q9HAP6
T12 sequence (Q9HAP6 88-185, limits assumed, looked up): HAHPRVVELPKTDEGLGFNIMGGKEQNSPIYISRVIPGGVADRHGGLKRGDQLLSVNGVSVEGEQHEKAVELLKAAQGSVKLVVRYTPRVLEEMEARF

[1] = plain residues with an end cap or a label only (N-terminal biotin on a linker: ahx)
[2] = plain residues with an end cap or a label only (N-terminal biotin on a linker: ado-ado)

Chain of TJP1_3, Q07157 (Q07157 416-512): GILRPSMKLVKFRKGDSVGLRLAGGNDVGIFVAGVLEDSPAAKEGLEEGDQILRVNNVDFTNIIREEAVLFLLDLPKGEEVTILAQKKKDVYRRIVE

NRKREIFSNF [NHERF2, Q15599]
pKd (DLG3_1, Q92796; [1]): below the threshold | pKd (TJP1_3, Q07157; [1]): below the threshold | pKd (MPP2, Q14168; [1]): below the threshold | pKd (GIPC2, Q8TF65; [1]): below the threshold | pKd (Inadl_8, Q8NI35; [1]): below the threshold | pKd (PTPN13_1, Q12923; [1]): below the threshold | pKd (NHERF4_4, Q86UT5; [1]): below the threshold | pKd (CASK, O14936; [1]): below the threshold | pKd (MAGI2_6, Q86UL8; [1]): 3.55 | pKd (NHERF3_3, Q5T2W1; [1]): below the threshold | pKd (LNX1_2, Q8TBB1; [1]): below the threshold | pKd (DLG3_2, Q92796; [1]): below the threshold | pKd (SNTG1, Q9NSN8; [1]): below the threshold | pKd (DLG4_2, P78352; [1]): below the threshold | pKd (LNX1_1, Q8TBB1; [1]): below the threshold | pKd (FRMPD2_3, Q68DX3; [1]): below the threshold | pKd (TX1BP3, O14907; [1]): below the threshold | pKd (DLG3_3, Q92796; [1]): below the threshold | pKd (Inadl_3, Q8NI35; [1]): below the threshold | pKd (Inadl_9, Q8NI35; [1]): below the threshold | pKd (MAGI2_4, Q86UL8; [1]): below the threshold | pKd (MAGI1_1, Q96QZ7; [1]): below the threshold | pKd (TJP3_3, O95049; [1]): below the threshold | pKd (APBA1_1, Q02410; [1]): below the threshold | pKd (GRIP1_2, Q9Y3R0; [1]): below the threshold | pKd (LIN7B, Q9HAP6; [1]): below the threshold

RAVEEEESRF [PSCDBP, O60759]
pKd (DLG3_1, Q92796; [1]): below the threshold | pKd (TJP1_3, Q07157; [1]): below the threshold | pKd (MPP2, Q14168; [1]): below the threshold | pKd (GIPC2, Q8TF65; [1]): below the threshold | pKd (Inadl_8, Q8NI35; [1]): below the threshold | pKd (PTPN13_1, Q12923; [1]): below the threshold | pKd (NHERF4_4, Q86UT5; [1]): below the threshold | pKd (CASK, O14936; [1]): below the threshold | pKd (MAGI2_6, Q86UL8; [1]): below the threshold | pKd (NHERF3_3, Q5T2W1; [1]): below the threshold | pKd (LNX1_2, Q8TBB1; [1]): below the threshold | pKd (DLG3_2, Q92796; [1]): below the threshold | pKd (SNTG1, Q9NSN8; [1]): below the threshold | pKd (DLG4_2, P78352; [1]): below the threshold | pKd (LNX1_1, Q8TBB1; [1]): below the threshold | pKd (FRMPD2_3, Q68DX3; [1]): below the threshold | pKd (TX1BP3, O14907; [1]): below the threshold | pKd (DLG3_3, Q92796; [1]): below the threshold | pKd (Inadl_3, Q8NI35; [1]): below the threshold | pKd (Inadl_9, Q8NI35; [1]): below the threshold | pKd (MAGI2_4, Q86UL8; [1]): below the threshold | pKd (MAGI1_1, Q96QZ7; [1]): below the threshold | pKd (TJP3_3, O95049; [1]): below the threshold | pKd (APBA1_1, Q02410; [1]): below the threshold | pKd (GRIP1_2, Q9Y3R0; [1]): below the threshold | pKd (LIN7B, Q9HAP6; [1]): below the threshold

PLSPEQPTKL [TRIM50, Q86XT4]
pKd (DLG3_1, Q92796; [2]): below the threshold | pKd (TJP1_3, Q07157; [2]): below the threshold | pKd (MPP2, Q14168; [2]): below the threshold | pKd (GIPC2, Q8TF65; [2]): below the threshold | pKd (Inadl_8, Q8NI35; [2]): below the threshold | pKd (PTPN13_1, Q12923; [2]): below the threshold | pKd (NHERF4_4, Q86UT5; [2]): below the threshold | pKd (CASK, O14936; [2]): below the threshold | pKd (MAGI2_6, Q86UL8; [2]): below the threshold | pKd (NHERF3_3, Q5T2W1; [2]): below the threshold | pKd (LNX1_2, Q8TBB1; [2]): below the threshold | pKd (DLG3_2, Q92796; [2]): below the threshold | pKd (SNTG1, Q9NSN8; [2]): below the threshold | pKd (DLG4_2, P78352; [2]): below the threshold | pKd (LNX1_1, Q8TBB1; [2]): below the threshold | pKd (FRMPD2_3, Q68DX3; [2]): below the threshold | pKd (TX1BP3, O14907; [2]): below the threshold | pKd (DLG3_3, Q92796; [2]): below the threshold | pKd (Inadl_3, Q8NI35; [2]): below the threshold | pKd (Inadl_9, Q8NI35; [2]): below the threshold | pKd (MAGI2_4, Q86UL8; [2]): below the threshold | pKd (MAGI1_1, Q96QZ7; [2]): below the threshold | pKd (TJP3_3, O95049; [2]): below the threshold | pKd (APBA1_1, Q02410; [2]): below the threshold | pKd (GRIP1_2, Q9Y3R0; [2]): below the threshold | pKd (LIN7B, Q9HAP6; [2]): below the threshold

HNAFLSVTTV [PDZRN4, Q6ZMN7]
pKd (DLG3_1, Q92796; [1]): 3.56 | pKd (TJP1_3, Q07157; [1]): below the threshold | pKd (MPP2, Q14168; [1]): below the threshold | pKd (GIPC2, Q8TF65; [1]): below the threshold | pKd (Inadl_8, Q8NI35; [1]): 3.52 | pKd (PTPN13_1, Q12923; [1]): below the threshold | pKd (NHERF4_4, Q86UT5; [1]): below the threshold | pKd (CASK, O14936; [1]): below the threshold | pKd (MAGI2_6, Q86UL8; [1]): below the threshold | pKd (NHERF3_3, Q5T2W1; [1]): below the threshold | pKd (LNX1_2, Q8TBB1; [1]): 3.65 | pKd (DLG3_2, Q92796; [1]): 3.61 | pKd (SNTG1, Q9NSN8; [1]): below the threshold | pKd (DLG4_2, P78352; [1]): 3.51 | pKd (LNX1_1, Q8TBB1; [1]): below the threshold | pKd (FRMPD2_3, Q68DX3; [1]): below the threshold | pKd (TX1BP3, O14907; [1]): below the threshold | pKd (DLG3_3, Q92796; [1]): below the threshold | pKd (Inadl_3, Q8NI35; [1]): 3.66 | pKd (Inadl_9, Q8NI35; [1]): below the threshold | pKd (MAGI2_4, Q86UL8; [1]): 3.49 | pKd (MAGI1_1, Q96QZ7; [1]): below the threshold | pKd (TJP3_3, O95049; [1]): below the threshold | pKd (APBA1_1, Q02410; [1]): 3.49 | pKd (GRIP1_2, Q9Y3R0; [1]): below the threshold | pKd (LIN7B, Q9HAP6; [1]): below the threshold

RRRKRKRTYL [HPV49-L2, P36762]
pKd (DLG3_1, Q92796; [1]): below the threshold | pKd (TJP1_3, Q07157; [1]): below the threshold | pKd (MPP2, Q14168; [1]): 3.74 | pKd (GIPC2, Q8TF65; [1]): below the threshold | pKd (Inadl_8, Q8NI35; [1]): 4.11 | pKd (PTPN13_1, Q12923; [1]): below the threshold | pKd (NHERF4_4, Q86UT5; [1]): 3.53 | pKd (CASK, O14936; [1]): below the threshold | pKd (MAGI2_6, Q86UL8; [1]): below the threshold | pKd (NHERF3_3, Q5T2W1; [1]): 4.18 | pKd (LNX1_2, Q8TBB1; [1]): below the threshold | pKd (DLG3_2, Q92796; [1]): below the threshold | pKd (SNTG1, Q9NSN8; [1]): below the threshold | pKd (DLG4_2, P78352; [1]): below the threshold | pKd (LNX1_1, Q8TBB1; [1]): 3.63 | pKd (FRMPD2_3, Q68DX3; [1]): below the threshold | pKd (TX1BP3, O14907; [1]): 3.48 | pKd (DLG3_3, Q92796; [1]): 4.28 | pKd (Inadl_3, Q8NI35; [1]): 3.72 | pKd (Inadl_9, Q8NI35; [1]): below the threshold | pKd (MAGI2_4, Q86UL8; [1]): below the threshold | pKd (MAGI1_1, Q96QZ7; [1]): below the threshold | pKd (TJP3_3, O95049; [1]): below the threshold | pKd (APBA1_1, Q02410; [1]): 3.71 | pKd (GRIP1_2, Q9Y3R0; [1]): below the threshold | pKd (LIN7B, Q9HAP6; [1]): below the threshold

From publication PMC9482650, “Quantitative fragmentomics allow affinity mapping of interactomes” (Nature Communications, 2022)
